Laboratory results published in publication doi:10.1101/2025.07.15.665015 (bioRxiv, 2025).

Experiments:
[1] = molecular target: the molecule itself; assay: single-molecule TIRF two-colour co-localisation
PKR [2] = molecular target: T1, PKR (Homo sapiens, UniProt P19525 1-551); assay: competition
PKRΔKD = PKRΔKD (Homo sapiens, UniProt P19525 1-184, del185-551); assay: single-molecule colocalization
PKR [3] = molecular target: T1, PKR; assay: single-molecule colocalization
PKR [4] = molecular target: T1, PKR; assay: competition; remark: listed apart in the source
PKR [5] = molecular target: T1, PKR; assay: single-molecule colocalization; remark: listed apart in the source

B1: PKR(K-E) (K150E and K154E), Cy3-labelled (enzyme, human, UniProt P19525 1-551, looked up)
chain: MAGDLSAGFFMEELNTYRQKQGVVLKYQELPNSGPPHDRRFTFQVIIDGREFPEGEGRSKKEAKNAAAKLAVEILNKEKKAVSPLLLTTTNSSEGLSMGNYIGLINRIAQKKRLTVNYEQCASGVHGPEGFHYKCKMGQKEYSIGTGSTEQEAEQLAAKLAYLQILSEETSVKSDYLSSGSFATTCESQSNSLVTSTLASESSSEGDFSADTSEINSNSDSLNSSSLLMNGLRNNQRKAKRSLAPRFDLPDMKETKYTVDKRFGMDFKEIELIGSGGFGQVFKAKHRIDGKTYVIKRVKYNNEKAEREVKALAKLDHVNIVHYNGCWDGFDYDPETSDDSLESSDYDPENSKNSSRSKTKCLFIQMEFCDKGTLEQWIEKRRGEKLDKVLALELFEQITKGVDYIHSKKLIHRDLKPSNIFLVDTKQVKIGDFGLVTSLKNDGKRTRSKGTLRYMSPEQISSQDYGKEVDLYALGLILAELLHVCDTAFETSKFFTDLRDGIISDIFDKKEKTLLQKLLSKKPEDRPNTSEILRTLTVWKKSPEKNERHTC
modifications: Cy3 at the N-terminus, by sortase-mediated ligation of the peptide Cy3-CLPETGG
binding result [1]: binds

B2: 33-bp dsRNA (dsRNA)
RNA 1: GGGUUUUCCCAGUCACGACGUUGUAAAACGACG
RNA 2: CGUCGUUUUACAACGUCGUGACUGGGAAAACCC
binding result (PKR [2]): binds

B3: 79-bp dsRNA (dsRNA)
RNA 1: GGGUUUUCCCAGUCACGACGUUGUAAAACGACGGCCAGUGAAUUCGAGCUCGGUACCCGGGGAUCCUCUAGAGUCGACC
RNA 2: GGUCGACUCUAGAGGAUCCCCGGGUACCGAGCUCGAAUUCACUGGCCGUCGUUUUACAACGUCGUGACUGGGAAAACCC
binding result (PKRΔKD): binds
binding result (PKR [3]): binds

B4: 25-bp dsRNA (dsRNA)
RNA 1: GGGUUUUCCCAGUCACGACGUUGUA
RNA 2: UACAACGUCGUGACUGGGAAAACCC
binding result (PKR [4]): binds

B5: mini-VA (structured_RNA)
RNA: GGGUAUCAUGGCGGACGACCGGGGUUCGAACCCCGGAUCCGGCCGUCCGCCGUGAUACCC
binding result (PKR [5]): binds
